Paper PMC12199305 (2025)
Values belong to the binder of their own block, whether it stands above or below them.

Columns and labels:
MEF2A [1] = target: T1, MEF2A (human, UniProt Q02078 1-507); assay: SPR
MEF2A [2] = target: T1, MEF2A; assay: SPR; remark: listed apart in the source

T1 sequence (Q02078 whole entry): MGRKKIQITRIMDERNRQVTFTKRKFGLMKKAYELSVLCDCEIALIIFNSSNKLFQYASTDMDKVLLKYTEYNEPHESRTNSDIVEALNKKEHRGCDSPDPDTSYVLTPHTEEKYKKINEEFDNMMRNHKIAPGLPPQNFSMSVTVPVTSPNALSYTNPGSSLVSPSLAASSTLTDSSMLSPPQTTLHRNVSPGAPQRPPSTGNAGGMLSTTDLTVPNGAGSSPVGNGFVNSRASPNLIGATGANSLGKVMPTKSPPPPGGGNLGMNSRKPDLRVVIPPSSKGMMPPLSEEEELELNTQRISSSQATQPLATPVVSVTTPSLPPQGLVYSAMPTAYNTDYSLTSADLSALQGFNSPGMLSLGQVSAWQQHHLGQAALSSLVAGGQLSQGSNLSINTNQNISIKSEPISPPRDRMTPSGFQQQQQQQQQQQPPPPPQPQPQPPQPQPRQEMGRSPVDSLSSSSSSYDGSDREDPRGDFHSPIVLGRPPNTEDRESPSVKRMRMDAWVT

- koff (MEF2A [1]): 0.0082 s⁻¹
- Kd (MEF2A [2]): 19.1 nM
B1: HDAC9 (enzyme)
chain: MHSMISSVDVKSEVPVGLEPISPLDLRTDLRMMMPVVDPVVREKQLQQELLLIQQQQQIQKQLLIAEFQKQHENLTRQHQAQLQEHIKELLAIKQQQELLEKEQKLEQQRQEQEVERHRREQQLPPLRGKDRGRERAVASTEVKQKLQEFLLSKSATKDTPTNGKNHSVSRHPKLWYTAAHHTSLDQSSPPLSGTSPSYKYTLPGAQDAKDDFPLRKTASEPNLKVRSRLKQKVAERRSSPLLRRKDGNVVTSFKKRMFEVTESSVSSSSPGSGPSSPNNGPTGSVTENETSVLPPTPHAEQMVSQQRILIHEDSMNLLSLYTSPSLPNITLGLPAVPSQLNASNSLKEKQKCETQTLRQGVPLPGQYGGSIPASSSHPHVTLEGKPPNSSHQALLQHLLLKEQMRQQKLLVAGGVPLHPQSPLATKERISPGIRGTHKLPRHRPLNRTQSAPLPQSTLAQLVIQQQHQQFLEKQKQYQQQIHMNKLLSKSIEQLKQPGSHLEEAEEELQGDQAMQEDRAPSSGNSTRSDSSACVDDTLGQVGAVKVKEEPVDSDEDAQIQEMESGEQAAFMQQPFLEPTHTRALSVRQAPLAAVGMDGLEKHRLVSRTHSSPAASVLPHPAMDRPLQPGSATGIAYDPLMLKHQCVCGNSTTHPEHAGRIQSIWSRLQETGLLNKCERIQGRKASLEEIQLVHSEHHSLLYGTNPLDGQKLDPRILLGDDSQKFFSSLPCGGLGVDSDTIWNELHSSGAARMAVGCVIELASKVASGELKNGFAVVRPPGHHAEESTAMGFCFFNSVAITAKYLRDQLNISKILIVDLDVHHGNGTQQAFYADPSILYISLHRYDEGNFFPGSGAPNEVGTGLGEGYNINIAWTGGLDPPMGDVEYLEAFRTIVKPVAKEFDPDMVLVSAGFDALEGHTPPLGGYKVTAKCFGHLTKQLMTLADGRVVLALEGGHDLTAICDASEACVNALLGNELEPLAEDILHQSPNMNAVISLQKIIEIQSMSLKFS

- koff (MEF2A [1]): 0.0025 s⁻¹
- Kd (MEF2A [2]): 5 nM
B2: HDAC4 (enzyme)
chain: MSSQSHPDGLSGRDQPVELLNPARVNHMPSTVDVATALPLQVAPSAVPMDLRLDHQFSLPVAEPALREQQLQQELLALKQKQQIQRQILIAEFQRQHEQLSRQHEAQLHEHIKQQQEMLAMKHQQELLEHQRKLERHRQEQELEKQHREQKLQQLKNKEKGKESAVASTEVKMKLQEFVLNKKKALAHRNLNHCISSDPRYWYGKTQHSSLDQSSPPQSGVSTSYNHPVLGMYDAKDDFPLRKTASEPNLKLRSRLKQKVAERRSSPLLRRKDGPVVTALKKRPLDVTDSACSSAPGSGPSSPNNSSGSVSAENGIAPAVPSIPAETSLAHRLVAREGSAAPLPLYTSPSLPNITLGLPATGPSAGTAGQQDAERLTLPALQQRLSLFPGTHLTPYLSTSPLERDGGAAHSPLLQHMVLLEQPPAQAPLVTGLGALPLHAQSLVGADRVSPSIHKLRQHRPLGRTQSAPLPQNAQALQHLVIQQQHQQFLEKHKQQFQQQQLQMNKIIPKPSEPARQPESHPEETEEELREHQALLDEPYLDRLPGQKEAHAQAGVQVKQEPIESDEEEAEPPREVEPGQRQPSEQELLFRQQALLLEQQRIHQLRNYQASMEAAGIPVSFGGHRPLSRAQSSPASATFPVSVQEPPTKPRFTTGLVYDTLMLKHQCTCGSSSSHPEHAGRIQSIWSRLQETGLRGKCECIRGRKATLEELQTVHSEAHTLLYGTNPLNRQKLDSKKLLGSLASVFVRLPCGGVGVDSDTIWNEVHSAGAARLAVGCVVELVFKVATGELKNGFAVVRPPGHHAEESTPMGFCYFNSVAVAAKLLQQRLSVSKILIVDWDVHHGNGTQQAFYSDPSVLYMSLHRYDDGNFFPGSGAPDEVGTGPGVGFNVNMAFTGGLDPPMGDAEYLAAFRTVVMPIASEFAPDVVLVSSGFDAVEGHPTPLGGYNLSARCFGYLTKQLMGLAGGRIVLALEGGHDLTAICDASEACVSALLGNELDPLPEKVLQQRPNANAVRSMEKVMEIHSKYWRCLQRTTSTAGRSLIEAQTCENEEAETVTAMASLSVGVKPAEKRPDEEPMEEEPPL

- koff (MEF2A [1]): 0.00082 s⁻¹
- Kd (MEF2A [2]): 3.5 nM
B3: HDAC7 (enzyme)
chain: MDLRVGQRPPVEPPPEPTLLALQRPQRLHHHLFLAGLQQQRSVEPMRLSMDTPMPELQVGPQEQELRQLLHKDKSKRSAVASSVVKQKLAEVILKKQQAALERTVHPNSPGIPYRTLEPLETEGATRSMLSSFLPPVPSLPSDPPEHFPLRKTVSEPNLKLRYKPKKSLERRKNPLLRKESAPPSLRRRPAETLGDSSPSSSSTPASGCSSPNDSEHGPNPILGSEALLGQRLRLQETSVAPFALPTVSLLPAITLGLPAPARADSDRRTHPTLGPRGPILGSPHTPLFLPHGLEPEAGGTLPSRLQPILLLDPSGSHAPLLTVPGLGPLPFHFAQSLMTTERLSGSGLHWPLSRTRSEPLPPSATAPPPPGPMQPRLEQLKTHVQVIKRSAKPSEKPRLRQIPSAEDLETDGGGPGQVVDDGLEHRELGHGQPEARGPAPLQQHPQVLLWEQQRLAGRLPRGSTGDTVLLPLAQGGHRPLSRAQSSPAAPASLSAPEPASQARVLSSSETPARTLPFTTGLIYDSVMLKHQCSCGDNSRHPEHAGRIQSIWSRLQERGLRSQCECLRGRKASLEELQSVHSERHVLLYGTNPLSRLKLDNGKLAGLLAQRMFVMLPCGGVGVDTDTIWNELHSSNAARWAAGSVTDLAFKVASRELKNGFAVVRPPGHHADHSTAMGFCFFNSVAIACRQLQQQSKASKILIVDWDVHHGNGTQQTFYQDPSVLYISLHRHDDGNFFPGSGAVDEVGAGSGEGFNVNVAWAGGLDPPMGDPEYLAAFRIVVMPIAREFSPDLVLVSAGFDAAEGHPAPLGGYHVSAKCFGYMTQQLMNLAGGAVVLALEGGHDLTAICDASEACVAALLGNRVDPLSEEGWKQKPNLNAIRSLEAVIRVHSKYWGCMQRLASCPDSWVPRVPGADKEEVEAVTALASLSVGILAEDRPSEQLVEEEEPMNL
